Measured values from the supplement of paper PMC5998384.

Legend:
HeLa Kyoto [1] = experiment: solubility in G1/S (NP-40 vs SDS abundance) (log2 ratio); higher = more soluble; conditions: cell cycle stage: G1/S
HeLa Kyoto [2] = experiment: melting temperature (median over replicates), in situ; higher = more thermally stable
HeLa Kyoto [3] = experiment: solubility change mitosis vs G1/S (difference of NP-40 vs SDS log2 ratios) (log2 ratio difference); higher = more soluble in mitosis
HeLa Kyoto [4] = experiment: thermal stability score vs G1/S (z-score of summed log2 fold changes over temperatures); higher = more thermally stable than in G1/S
[5] = cell cycle stage: early G1 (4.5 h after nocodazole release)
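Throughout, for melting temperature (median over replicates), in situ: HeLa Kyoto cells synchronized by double thymidine or nocodazole block, proteins quantified by TMT10plex mass spectrometry, three independent biological replicates.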
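Throughout, for solubility change mitosis vs G1/S (difference of NP-40 vs SDS log2 ratios): synchronized HeLa Kyoto cells (double thymidine block for G1/S, nocodazole release for mitosis), protein amounts in NP-40 versus SDS lysates quantified by mass spectrometry, three biological replicates.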
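Throughout, for solubility in G1/S (NP-40 vs SDS abundance): HeLa Kyoto cells arrested at G1/S by double thymidine block, proteins quantified by TMT10plex mass spectrometry in mild NP-40 versus SDS extracts, three biological replicates.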
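Throughout, for thermal stability score vs G1/S (z-score of summed log2 fold changes over temperatures): synchronized HeLa Kyoto cells, proteins quantified by TMT10plex mass spectrometry, three biological replicates, mitosis taken 0.5 h after nocodazole release, G1/S directly after double thymidine block.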

NRBP1, sequence (chain, as listed by the source): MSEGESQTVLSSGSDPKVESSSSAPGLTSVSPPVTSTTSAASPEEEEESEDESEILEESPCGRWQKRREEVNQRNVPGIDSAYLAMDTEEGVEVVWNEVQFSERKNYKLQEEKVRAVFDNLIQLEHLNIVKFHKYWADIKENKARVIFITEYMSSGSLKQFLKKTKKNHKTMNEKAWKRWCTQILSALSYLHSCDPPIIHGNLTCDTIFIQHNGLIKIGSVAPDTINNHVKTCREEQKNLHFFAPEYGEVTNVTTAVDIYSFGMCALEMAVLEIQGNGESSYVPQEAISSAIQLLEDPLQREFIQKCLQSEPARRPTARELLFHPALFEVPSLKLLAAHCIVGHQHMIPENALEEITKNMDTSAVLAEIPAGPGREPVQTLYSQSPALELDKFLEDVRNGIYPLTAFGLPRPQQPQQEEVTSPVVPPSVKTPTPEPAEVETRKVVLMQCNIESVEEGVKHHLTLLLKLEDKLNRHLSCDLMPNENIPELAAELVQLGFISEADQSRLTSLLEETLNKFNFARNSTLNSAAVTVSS

Substance | solubility in G1/S (log2) (HeLa Kyoto [1]) | melting temperature (HeLa Kyoto [2]; cell cycle stage: G1/S) | melting temperature (HeLa Kyoto [2]; cell cycle stage: mitosis) | solubility change mitosis (log2) (HeLa Kyoto [3]) | thermal stability score (HeLa Kyoto [4]; [5]) | thermal stability score (HeLa Kyoto [4]; cell cycle stage: mitosis)
MEPFTNDRLQLPRNMIENSMFEEEPDVVDLAKEPCLHPLEPDEVEYEPRGSRLLVRGLGEHEMEEDEEDYESSAKLLGMSFMNRSSGLRNSATGYRQSPDGACSVPSARTMVVCAFVIVVAVSVIMVIYLLPRCTFTKEGCHKKNQSIGLIQPFATNGKLFPWAQIRLPTAVVPLRYELSLHPNLTSMTFRGSVTISVQALQVTWNIILHSTGHNISRVTFMSAVSSQEKQAEILEYAYHGQIAIVAPEALLAGHNYTLKIEYSANISSSYYGFYGFSYTDESNEKKYFAATQFEPLAARSAFPCFDEPAFKATFIIKIIRDEQYTALSNMPKKSSVVLDDGLVQDEFSESVKMSTYLVAFIVGEMKNLSQDVNGTLVSIYAVPEKIGQVHYALETTVKLLEFFQNYFEIQYPLKKLDLVAIPDFEAGAMENWGLLTFREETLLYDSNTSSMADRKLVTKIIAHELAHQWFGNLVTMKWWNDLWLNEGFATFMEYFSLEKIFKELSSYEDFLDARFKTMKKDSLNSSHPISSSVQSSEQIEEMFDSLSYFKGSSLLLMLKTYLSEDVFQHAVVLYLHNHSYASIQSDDLWDSFNEVTNQTLDVKRMMKTWTLQKGFPLVTVQKKGKELFIQQERFFLNMKPEIQPSDTSYLWHIPLSYVTEGRNYSKYQSVSLLDKKSGVINLTEEVLWVKVNINMNGYYIVHYADDDWEALIHQLKINPYVLSDKDRANLINNIFELAGLGKVPLKRAFDLINYLGNENHTAPITEALFQTDLIYNLLEKLGYMDLASRLVTRVFKLLQNQIQQQTWTDEGTPSMRELRSALLEFACTHNLGNCSTTAMKLFDDWMASNGTQSLPTDVMTTVFKVGAKTDKGWSFLLGKYISIGSEAEKNKILEALASSEDVRKLYWLMKSSLNGDNFRTQKLSFIIRTVGRHFPGHLLAWDFVKENWNKLVQKFPLGSYTIQNIVAGSTYLFSTKTHLSEVQAFFENQSEATFRLRCVQEALEVIQLNIQWMEKNLKSLTWWL [LNPEP] | 0.198 | 56.8 °C | 57.1 °C | -0.15 | -1.44 | -1.44
MATERSRSAMDSPVPASMFAPEPSSPGAARAAAAAARLHGGFDSDCSEDGEALNGEPELDLTSKLVLVSPTSEQYDSLLRQMWERMDEGCGETIYVIGQGSDGTEYGLSEADMEASYATVKSMAEQIEADVILLRERQEAGGRVRDYLVRKRVGDNDFLEVRVAVVGNVDAGKSTLLGVLTHGELDNGRGFARQKLFRHKHEIESGRTSSVGNDILGFDSEGNVVNKPDSHGGSLEWTKICEKSTKVITFIDLAGHEKYLKTTVFGMTGHLPDFCMLMVGSNAGIVGMTKEHLGLALALNVPVFVVVTKIDMCPANILQETLKLLQRLLKSPGCRKIPVLVQSKDDVIVTASNFSSERMCPIFQISNVTGENLDLLKMFLNLLSPRTSYREEEPAEFQIDDTYSVPGVGTVVSGTTLRGLIKLNDTLLLGPDPLGNFLSIAVKSIHRKRMPVKEVRGGQTASFALKKIKRSSIRKGMVMVSPRLNPQASWEFEAEILVLHHPTTISPRYQAMVHCGSIRQTATILSMDKDCLRTGDKATVHFRFIKTPEYLHIDQRLVFREGRTKAVGTITKLLQTTNNSPMNSKPQQIKMQSTKKGPLTKRDEGGPSGGPAVGAPPPGDEASSVGAGQPAASSNLQPQPKPSSGGRRRGGQRHKVKSQGACVTPASGC [GTPBP1] | 0.0683 | 51.1 °C | 50.7 °C | -0.0833 | 1.01 | 0.553
MASGSVAECLQQETTCPVCLQYFAEPMMLDCGHNICCACLARCWGTAETNVSCPQCRETFPQRHMRPNRHLANVTQLVKQLRTERPSGPGGEMGVCEKHREPLKLYCEEDQMPICVVCDRSREHRGHSVLPLEEAVEGFKEQIQNQLDHLKRVKDLKKRRRAQGEQARAELLSLTQMEREKIVWEFEQLYHSLKEHEYRLLARLEELDLAIYNSINGAITQFSCNISHLSSLIAQLEEKQQQPTRELLQDIGDTLSRAERIRIPEPWITPPDLQEKIHIFAQKCLFLTESLKQFTEKMQSDMEKIQELREAQLYSVDVTLDPDTAYPSLILSDNLRQVRYSYLQQDLPDNPERFNLFPCVLGSPCFIAGRHYWEVEVGDKAKWTIGVCEDSVCRKGGVTSAPQNGFWAVSLWYGKEYWALTSPMTALPLRTPLQRVGIFLDYDAGEVSFYNVTERCHTFTFSHATFCGPVRPYFSLSYSGGKSAAPLIICPMSGIDGFSGHVGNHGHSMETSP [TRIM27] | -0.499 | 50.9 °C | 50.5 °C | -0.135 | 1.44 | 3.24
NRBP1 | 0.099 | 51.9 °C | 51.4 °C | -0.15 | 0.757 | 0.7
MASSAEGDEGTVVALAGVLQSGFQELSLNKLATSLGASEQALRLIISIFLGYPFALFYRHYLFYKETYLIHLFHTFTGLSIAYFNFGNQLYHSLLCIVLQFLILRLMGRTITAVLTTFCFQMAYLLAGYYYTATGNYDIKWTMPHCVLTLKLIGLAVDYFDGGKDQNSLSSEQQKYAIRGVPSLLEVAGFSYFYGAFLVGPQFSMNHYMKLVQGELIDIPGKIPNSIIPALKRLSLGLFYLVGYTLLSPHITEDYLLTEDYDNHPFWFRCMYMLIWGKFVLYKYVTCWLVTEGVCILTGLGFNGFEEKGKAKWDACANMKVWLFETNPRFTGTIASFNINTNAWVARYIFKRLKFLGNKELSQGLSLLFLALWHGLHSGYLVCFQMEFLIVIVERQAARLIQESPTLSKLAAITVLQPFYYLVQQTIHWLFMGYSMTAFCLFTWDKWLKVYKSIYFLGHIFFLSLLFILPYIHKAMVPRKEKLKKME [LPCAT3] | -0.0534 | – | 55.7 °C | -0.275 | 0.0481 | -0.776
MSRIEKMSILGVRSFGIEDKDKQIITFFSPLTILVGPNGAGKTTIIECLKYICTGDFPPGTKGNTFVHDPKVAQETDVRAQIRLQFRDVNGELIAVQRSMVCTQKSKKTEFKTLEGVITRTKHGEKVSLSSKCAEIDREMISSLGVSKAVLNNVIFCHQEDSNWPLSEGKALKQKFDEIFSATRYIKALETLRQVRQTQGQKVKEYQMELKYLKQYKEKACEIRDQITSKEAQLTSSKEIVKSYENELDPLKNRLKEIEHNLSKIMKLDNEIKALDSRKKQMEKDNSELEEKMEKVFQGTDEQLNDLYHNHQRTVREKERKLVDCHRELEKLNKESRLLNQEKSELLVEQGRLQLQADRHQEHIRARDSLIQSLATQLELDGFERGPFSERQIKNFHKLVRERQEGEAKTANQLMNDFAEKETLKQKQIDEIRDKKTGLGRIIELKSEILSKKQNELKNVKYELQQLEGSSDRILELDQELIKAERELSKAEKNSNVETLKMEVISLQNEKADLDRTLRKLDQEMEQLNHHTTTRTQMEMLTKDKADKDEQIRKIKSRHSDELTSLLGYFPNKKQLEDWLHSKSKEINQTRDRLAKLNKELASSEQNKNHINNELKRKEEQLSSYEDKLFDVCGSQDFESDLDRLKEEIEKSSKQRAMLAGATAVYSQFITQLTDENQSCCPVCQRVFQTEAELQEVISDLQSKLRLAPDKLKSTESELKKKEKRRDEMLGLVPMRQSIIDLKEKEIPELRNKLQNVNRDIQRLKNDIEEQETLLGTIMPEEESAKVCLTDVTIMERFQMELKDVERKIAQQAAKLQGIDLDRTVQQVNQEKQEKQHKLDTVSSKIELNRKLIQDQQEQIQHLKSTTNELKSEKLQISTNLQRRQQLEEQTVELSTEVQSLYREIKDAKEQVSPLETTLEKFQQEKEELINKKNTSNKIAQDKLNDIKEKVKNIHGYMKDIENYIQDGKDDYKKQKETELNKVIAQLSECEKHKEKINEDMRLMRQDIDTQKIQERWLQDNLTLRKRNEELKEVEEERKQHLKEMGQMQVLQMKSEHQKLEENIDNIKRNHNLALGRQKGYEEEIIHFKKELREPQFRDAEEKYREMMIVMRTTELVNKDLDIYYKTLDQAIMKFHSMKMEEINKIIRDLWRSTYRGQDIEYIEIRSDADENVSASDKRRNYNYRVVMLKGDTALDMRGRCSAGQKVLASLIIRLALAETFCLNCGIIALDEPTTNLDRENIESLAHALVEIIKSRSQQRNFQLLVITHDEDFVELLGRSEYVEKFYRIKKNIDQCSEIVKCSVSSLGFNVH [RAD50] | -0.129 | 48.8 °C | 49.7 °C | -0.108 | 2.17 | 3.45
